Target: T1, Twinkle (mitochondrial DNA helicase) (human, UniProt Q96RR1 43-684, del1-42)
T1 sequence: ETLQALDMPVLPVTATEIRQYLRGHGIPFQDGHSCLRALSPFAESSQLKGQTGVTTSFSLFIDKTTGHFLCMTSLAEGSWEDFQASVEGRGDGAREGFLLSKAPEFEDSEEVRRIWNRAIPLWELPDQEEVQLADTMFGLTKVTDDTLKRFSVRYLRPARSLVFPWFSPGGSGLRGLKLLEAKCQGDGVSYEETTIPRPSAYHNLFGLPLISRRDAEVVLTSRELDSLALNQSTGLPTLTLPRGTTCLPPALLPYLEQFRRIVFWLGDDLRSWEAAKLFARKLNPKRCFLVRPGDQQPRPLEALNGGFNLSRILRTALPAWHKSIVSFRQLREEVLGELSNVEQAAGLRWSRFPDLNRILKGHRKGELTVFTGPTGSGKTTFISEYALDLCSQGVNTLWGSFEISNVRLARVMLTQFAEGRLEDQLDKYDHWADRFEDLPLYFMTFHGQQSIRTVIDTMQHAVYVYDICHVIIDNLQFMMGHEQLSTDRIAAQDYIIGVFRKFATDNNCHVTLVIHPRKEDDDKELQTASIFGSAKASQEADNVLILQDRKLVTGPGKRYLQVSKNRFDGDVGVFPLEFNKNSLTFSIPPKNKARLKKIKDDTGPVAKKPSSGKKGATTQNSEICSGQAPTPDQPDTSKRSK
Test: FAM fluorescence quenching titration

B1: BHQ1-dT22 (ssDNA)
DNA: TTTTTTTTTTTTTTTTTTTTTT
B1 showed a Kd of 27.7 ± 3.8 nM.

— paper PMC11063129
